Measurements taken from the nanobody polyreactivity screen of Harvey et al. (2022).

Assay: yeast display, Sf9 membrane polyspecificity reagent, FACS + sequencing; frameworks hold sequencing errors
In short: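 Using colony PCR, genes from sorted yeast display clones were amplified, then sequenced on MiSeq at 2 × 250 and filtered by CDR length. The clones had been stained with 10% biotinylated, detergent-solubilized Sf9 membrane reagent for 1 hour at 4 °C and sorted by FACS into low and high (top ~1%) gates on anti-HA and streptavidin fluorescence. Polyreactivity labels come from the gate of origin.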

Row | Sequence | polyreactivity (PSR sort gate)
1 | QVQLVESGGGLVQAGGSLRLSCAASGRIFGINVMGWYRQAPGKERELVARITGRGGRTYYADSVKGRFTISRDNAKNTVYLQINSLKPEDTAFYYCAADARYEAYDYWGQGTQVTVSS | high polyreactivity
2 | QVQLVESGGGLVQAGGSLRLSCAASGRIFGIYAMGWYRQAPGKERELVAAISFIGGRTYYADSVKGRFTISRDNAKNTVYLQMNSLKPEDTAVYYCAARTVPSSRREYWGQGTQVTVSS | high polyreactivity
3 | QVQLVESGGGLVQAGGSLRLSCAASGRIFGIYTMGWYRQAPGKERELVAAITQGGGSTYYADSVKGRFTISRDNAKNTVYLQMNSLNPEDTAVYYCAARPKSPSGTRRYYWGQGTQVTVSS | high polyreactivity
4 | QVQLVESGGGLVQAGGSLRLSCAASGRIFGKNAMGWYIQAPRKERDLVAAITSTGGTTYYADSVMGRFTISRDNAKNTVYLQMNSLKPEDSAVYDCAKDGQTNNETQGLKYDYWGQGTQLTVSS | low polyreactivity
5 | QVQLVESGGGLVQAGGSLRLSCAASGRIFGKNVMGLYRKAPGKERELVAAINRSSRTYYADSVKGRFTISRDNAKNTVYLQMNSLKPEDTAVYYCAAHAFPDGDYWGQGTQVTVSS | high polyreactivity
6 | QVQLVESGGGLVQAGGSLRLSCAASGRIFGKYAMGWYRHAPGKERELVAAIRSRGSTTYYADSVKGRFTISRDNAKNTVYLQMNSLKPEDTAVYYCAKDVGGKPWYPYGYWGQGTQVTVSS | high polyreactivity
7 | QVQLVESGGGLVQAGGSLRLSCAASGRIFGKYAMGWYRQAPGKERELVARISFSGGTTYYADSVKGRFTISRDNAKNTVYLQMNSLKQEDTAVYYCNARRVWSQRWAYDSWGQGTQVTVSS | high polyreactivity
8 | QVQLVESGGGLVQAGGSLRLSCAASGRIFGKYAMGWYRQAPRKERELVARISFSGGTTYYADSVKGRFTISRDNAKNTVYLQMKSLKPEDTAVYYGNARRVWSQRWAYDSWGQGTQVTVSS | high polyreactivity
9 | QVQLVESGGGLVQAGGSLRLSCAASGRIFGLNAMGWYRQAPGKERELVAAITGSVGSTYYADSVKGRFTISRDNAKNTVYLQMNSLKPEDTAVYYCYAEYDSRRSSYYRHFNYWGQGTQVTVSS | low polyreactivity
10 | QVQLVESGGGLVQAGGSLRLSCAASGRIFGLNAMGWYRQAPGQERELVAAIDIIGGSTYYADSVKGRFTISRDNAKNTVYLQMNSLKPEDTAVYNCAAEGDFWRFVEYDYWGQGTQVTVSS | low polyreactivity
11 | QVQLVESGGGLVQAGGSLRLSCAASGRIFGLNTMGRYRQAPGKERELVAAITSSAGSTYYADSVKGRCTISRDNAKNTVYLQMNSLKPEDTAVYYSAARVSYLGSFTSQRYYYWGLGTQVTVSS | high polyreactivity
12 | QVQLVESGGGLVQAGGSLRLSCAASGRIFGLYAMGWYRQAPGKEREFVAAIRLSGGSTYYADSVKGRFTISRDNAKNTVYLQMISLKPEDTAVYYCAADLSYNRGRGSRVYYWGQGTQVTVSS | high polyreactivity
13 | QVQLVESGGGLVQAGGSLRLSCAASGRIFGLYAMGWYRQAPGKERELVAAITKRGGTTYYADSVKVRFTISRDNAKNTVYLQMKSLKPEDTAVYYCAAKRSVLRTADYDYWGQGTQVTVSS | high polyreactivity
14 | QVQLVESGGGLVQAGGSLRLSCAASGRIFGMYTKGWYRQETGKETELVAAINTGGSTYYADSVKGRFTISRDNAKNTVYLQMNSLKPEDTAVYYCNAETGWPWIYHYDYWGQGTQVTVSS | low polyreactivity
15 | QVQLVESGGGLVQAGGSLRLSCAASGRIFGNNAMGWYRQAPGKERELVAAIRSRGTRTYYADSVKGRFTISRDNAKNTVYLQMNSLKPEDTAVYYCATTSLTGRYDRYDYWGQGTQVTVSS | high polyreactivity
16 | QVQLVESGGGLVQAGGSLRLSCAASGRIFGNYAMGWYRPATGKESELVAAISGGGSTYYADSVKGRFTISRDNAKNTVYLQMNSVKPEDTAVYYCAARFMWSVFGRKGGYWGQGTHVTVSS | low polyreactivity
17 | QVQLVESGGGLVQAGGSLRLSCAASGRIFGNYAMGWYRQAPGKERELVAAISGGGSTYYADSVKGRFTISRDNAKNTVYLQMNSLKPEDTAVYYCNAKTYYPPFGYWGQGTQVTVSS | low polyreactivity
18 | QVQLVESGGGLVQAGGSLRLSCAASGRIFGPNAMGWYRQAPGKERELVAAITGSGGSTYADSVKGRFTISRDNAKNTVYLQMNSLKREDTAVYYCAKKTWYSYYWGQGTQVTVSS | high polyreactivity
19 | QVQLVESGGGLVQAGGSLRLSCAASGRIFGPYAMGWYRQAPGKDRELVAAISASGGRTYDADSVKGRFTISRDNAKNTVYLQMNSLKPEDTAVYYCARRYWHSGWIFDYWGQGTQVTVSS | high polyreactivity
20 | QVQLVESGGGLVQAGGSLRLSCAASGRIFGPYAMGWYRQAPGKERELVAAITQRGGSTSYADSVKGRFTISRDNAKKTVYLQMNSLKPEDTAVYYCNVLSYGSIPRRGYYYVWGDYWGQGTQVTVSS | high polyreactivity
21 | QVQLVESGGGLVQAGGSLRLSCAASGRIFGPYAMGWYRQAPRKERELVASISYSGGSTYYADSVKGRFTISRDNAKNTVYLQMNSLKPEDTAVYYCAKGGYWRGYNYWGQGTQVTVSS | low polyreactivity

Row | Sequence | polyreactivity (PSR sort gate)
22 | QVQLVESGGGLVQAGGSLRLSCAASGRIFGPYTKGWYRQAPGKERQLVAAISCSGGSTYYADSVKGRFTISRDNAKNTVYLQMNSLKPEDTAVSYCKADHPFPQYEGGSSGQGTQVTVSS | low polyreactivity
23 | QVQLVESGGGLVQAGGSLRLSCAASGRIFGPYTMGWYRQAPGKERELVAAISSTGGSTYYADSVKGRFTISRDNAKNTVYLQRNSLKPEDTAVYYCEYDYWGQGTQVTVSS | low polyreactivity
24 | QVQLVESGGGLVQAGGSLRLSCAASGRIFGPYTMGWYRQAPGKERELVAAITGRVVSTYYADSVKGRFTISRDNAKNTVYLQMNSLKPEDTAVYYCAKASHYWSQRFGYWGQGTQVTVSS | high polyreactivity
25 | QVQLVESGGGLVQAGGSLRLSCAASGRIFGPYVMGWYRQAPGKEREFVAAISRRTGSTYYADSVKGRFTISRDNAKNTVYLQMNSLKPEDTAVYYCAATYYFSHVVGYGYWGQGTQVTVSS | high polyreactivity
26 | QVQLVESGGGLVQAGGSLRLSCAASGRIFGPYVMGWYRQAPGKERELVAAISTSGTSTYYADSVKGRFTISRDNAKNTVYLQMNSLKPEDTAVYYCAKRSGARHRLMDYWGQGTQVTVSS | low polyreactivity
27 | QVQLVESGGGLVQAGGSLRLSCAASGRIFGRNAMGWYRPAPGKERELVAAITSGGSTNYADSVKGRFTISRDNAKNTVYLQMNSLKPEDAAVYYCAARRVIYVRLDYDYWGQGTQVTVSS | high polyreactivity
28 | QVQLVESGGGLVQAGGSLRLSCAASGRIFGRNAMGWYRQAPGKEREFVAAISRSGASTYYADSVKGRFTISRDNAKNTVYLQMNSLKPEDTAVYYCARTTRQSSAYTYSDEYDYWGQGTQVTVSS | high polyreactivity
29 | QVQLVESGGGLVQAGGSLRLSCAASGRIFGRNTMGWYRQAPGKERELVAAITGTGTTYADSVKGRFTISRDNAKNTVYLQMNSLKPEDTAVYYCAARRSVYTWVSRYNYWGQGTQVTVSS | high polyreactivity
30 | QVQLVESGGGLVQAGGSLRLSCAASGRIFGRNVMGWYRQAPGKERELVAAISWIGGSTSYADSVKGRFTISRDNAKNTVYLQMNSLKPEDTAVYYCAAKPYGYRHYWGYDYWGQGTQVTVSS | high polyreactivity
31 | QVQLVESGGGLVQAGGSLRLSCAASGRIFGRYAMGWYRQAPGKERELVAAITSGGRTSYADSVKGRFTISRDNAKNTVYLQMNSLKPEDTAVYYWNVVSRNSIRFDYWGQGTQVTVSS | high polyreactivity
32 | QVQLVESGGGLVQAGGSLRLSCAASGRIFGRYAMGWYRQAPGKERELVAAITSSGGSTYYADSVKGRFTISRDNAKNTVYLQMNSLKPEDTAVYYCAADSQYKYDYWGQGTQVTVSS | high polyreactivity
33 | QVQLVESGGGLVQAGGSLRLSCAASGRIFGRYAMGWYRQAPGKERELVAVISSGGSTYYADSVKGRFTISRDNAKNTVYLQMNSLKPEDTAVYYCAAVNRGGYDYWGQGTQVTVSS | low polyreactivity
34 | QVQLVESGGGLVQAGGSLRLSCAASGRIFGRYAMGWYRQAPGKERELVAVISSGGSTYYADSVKGRFTISRDNAKNTVYLQMNSLKREDTAVYYCAAVNRGGYDYWGQGTQVTVSS | low polyreactivity
35 | QVQLVESGGGLVQAGGSLRLSCAASGRIFGRYAMGWYRQAPGKEWELVAAISNGGTTTYADSVKGRFTLSRDNAKNTVYLQMNSLKPEDTAVYYCADDWSYKIYVIQRWYGVDYWGQGTQVTVSS | low polyreactivity
36 | QVQLVESGGGLVQAGGSLRLSCAASGRIFGRYTMGWYRQAPGKERELVAAISARGGSTYYADSVKGRFTISRDNAKNTVYLQMNSLKPEDTAVYYCNTVRVHGFPIDRIYDYWGQGTQVTVSS | high polyreactivity
37 | QVQLVESGGGLVQAGGSLRLSCAASGRIFGSYAMGWYRQAPGKERELVAAISWRGTSTYYADSVKGRFTISRDNAKNTVYLQMNSLKPEDTAVYYCAARGLWPYDYWGQGTQVTVSS | low polyreactivity
38 | QVQLVESGGGLVQAGGSLRLSCAASGRIFGSYAMGWYRQAPGKERELVAAITRSGGSTYYADSVKGRFTISRDNAKNTVYLQMNSLKPEDTAVYYCAAYFRFSGSAKFGYWGQGTQVTVSS | high polyreactivity
39 | QVQLVESGGGLVQAGGSLRLSCAASGRIFGSYVMGWYRQAPGKERELVAAISIGGITKYADSVKGRFTISRDNAKNTVYLQMNSLKPEDTAVYYCAARLVRRYDYDYWGQGTQVTVSS | high polyreactivity
40 | QVQLVESGGGLVQAGGSLRLSCAASGRIFGSYVMGWYRQAPGKERELVAAITDGGTTFYADSVKGRFTISRDNAKNTVYLPMNSLKPEDTAVYYCAARQAGYSGRKLYYWGQGTQVTVSS | low polyreactivity
41 | QVQLVESGGGLVQAGGSLRLSCAASGRIFGTNAMGWYRPAPGKERELVADITSGGSTNYADSVKGRFTISRDNAKNTVYLQMNSLKPEDTAVYYCAAVLYSRLYWYRLDYWGQGTQVTVSS | low polyreactivity
